Experimental data from publication PMC11697773.

Key:
[1] = target: human neonatal Fc receptor (FcRn) (human) (UniProt P55899); test: BLI; Octet; biotinylated human FcRn on streptavidin-coated biosensors, antibody soluble; equilibrium binding; PBSA pH 5.6; tips regenerated in PBSA pH 7.4
[2] = target: human Fcγ receptor I (FcγRI) (human) (UniProt P12314); test: BLI; Octet; biotinylated human FcγRI on streptavidin-coated biosensors, antibody soluble; equilibrium binding; PBSA pH 7.4; tips regenerated in 0.1 M glycine pH 3.5
Sequence of human Fcγ receptor I (FcγRI) (human) (P12314 16-292): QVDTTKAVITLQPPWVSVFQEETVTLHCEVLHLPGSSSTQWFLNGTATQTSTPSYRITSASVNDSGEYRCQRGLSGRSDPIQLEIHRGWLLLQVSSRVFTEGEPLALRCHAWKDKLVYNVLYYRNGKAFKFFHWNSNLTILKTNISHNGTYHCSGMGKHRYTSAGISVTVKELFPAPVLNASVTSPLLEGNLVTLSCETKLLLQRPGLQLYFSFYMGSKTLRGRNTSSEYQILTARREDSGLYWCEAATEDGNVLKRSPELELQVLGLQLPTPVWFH

Kd [2] [nM] | Substance | Kd [1] [nM]
105 | F5111 antibody, N297A | 132
– | trastuzumab N297G + YTE + SEFL (aglycosylated variant) (antibody) | 20.4
